Measurements from the supplement of paper PMC10567573.

B1: WDR88 (parent)
chain: LLTITKAHSNAISNCCFTFSGHFL
B2: ADAMTSL2 (parent)
chain: KKPPEESTCFERPCFKWYTSPWSE

Variants of: B1
Experiment: protein stability index of a GFP-peptide fusion (GPS, HEK-293T) (PSI 1-6); higher = more stable
Conditions: c terminus: a fixed tail appended
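Further: lentivirally expressed fusions sorted by FACS into six bins by GFP to DsRed ratio, PSI derived from sequencing read proportions per bin multiplied by bin number.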

Protein stability index: each site, then its substitutions
G21: K 2.77, R 1.97, Q 2.92, S 3.32, C 2.31, L 2.46, D 2.75, H 2.53, E 2.6, M 3.69, F 2.41, I 2.97, P 3, T 3.34, N 2.42, W 2.94, Y 2.25, V 2.89
H22: I 3.1, G 2.96, S 2.34, D 2.31, M 3.59, Y 2.93, V 2.67, T 2.83, Q 2.78, C 3.5, P 2.51, N 2.9, K 2.06, F 2.02, L 3.61, W 3.16, A 2.56, R 1.27, E 2.89
L24: N 3.3, K 2.93, Q 2.64, Y 3.97, W 1.58, D 1.92, I 3.37, E 1.77, S 1.09, M 2.98, R 2.28, A 2.74, P 2.46, G 2.88, H 2.63, V 1.91, F 3.56, C 2.68, T 2.47
F23: E 2.1, M 3.51, G 2.05, T 1.91, N 1.99, I 2.79, V 1.99, Y 2.94, S 2.72, D 1.95, K 1.94, Q 1.79, P 2.96, W 3.34, H 2.91, A 3.02

Variants of: B2
Experiment: as above
Conditions: c terminus: a fixed tail appended

Protein stability index: each site, then its substitutions
F10: S 3.46, E 2.9, L 2.81, T 3.19, K 3.55, W 2.09, M 2.83, P 3.19, A 2.51, V 2.86, G 2.71, H 2.99, D 2.89, C 2.14, N 2.45, I 2.81, Q 2.54, Y 2.06
P3: W 2.6, Q 2.67, S 2.29, F 2, Y 1.88, D 2.77, H 1.84, C 2.08, E 3.04, N 2.94, A 2.83, M 2.29, L 2.26, V 2.16, I 1.93, G 2.34, T 2.21, K 2.18, R 2.46
C9: R 2.52, T 2.84, A 2.43, P 2.7, V 2.82, N 2.18, D 2.97, H 2.36, I 2.25, K 2.69, L 2.05, W 2.04, Y 2.54, G 2.63, M 2.8, F 2.3, Q 3.34, E 3.33, S 2.35
E6: N 2.08, H 2.06, Y 1.97, K 2.55, L 2.07, R 2.05, I 1.87, Q 2.06, F 1.9, A 1.91, D 2.8, P 2.05, G 2.57, T 1.84, C 2.44, W 1.87, S 1.82, M 1.9, V 2.65
K2: H 1.96, I 1.78, F 2.13, M 2.72, P 2.27, A 3.16, S 2.15, G 2.73, C 2.75, D 3.01, R 2.61, W 2.39, N 2.94, V 2.04, Y 2.36, Q 2.29, T 2.66, E 2.79, L 2.73
P13: L 2.09, Y 1.87, H 2.21, F 2.18, C 1.84, N 2.32, Q 2.1, M 2.02, D 2.39, G 2.27, R 1.79, I 2.02, S 2.31, V 1.96, A 2.23, T 2.16, E 2.49, K 2.58
E11: G 1.87, W 1.64, S 2.82, H 2.27, V 2.06, P 2.46, D 2.38, R 1.75, L 1.88, I 1.9, C 1.49, A 2.59, M 1.98, N 2.98, K 2.11, F 2.19, Q 2.27, Y 2.19, T 2.05
K1: Q 2.58, P 2.24, A 2.38, I 1.71, R 2.88, S 2.37, F 2.59, H 2.33, E 3.08, V 2.29, L 2.35, C 1.89, T 2.52, D 2.67, G 2.34, M 2.48, Y 1.83, W 1.75, N 3.12
T8: D 2.61, C 2.17, Y 1.68, E 2.69, V 2.28, S 2.77, I 2.32, H 2.29, G 2.37, L 3.01, W 1.7, A 2.75, K 2.89, R 2.14, F 1.74, P 2.59, M 2.45, Q 2.79, N 2.56
C14: Q 2.68, I 2.23, K 2.69, L 2.25, T 2.42, V 2.58, E 2.89, R 3.7, A 2.94, P 3.09, G 3.12, N 2.98, D 3.26, F 2.39, M 2.62, H 2.23, S 2.23
P4: M 2.29, G 3.23, K 2.49, Q 2.72, I 2.26, F 1.89, W 1.75, Y 2.48, L 2.04, V 2.77, A 2.93, N 2.19, D 2.69, S 2.21, R 2.49, E 2.4, H 1.94, T 3, C 1.95
S7: C 2.66, P 2.21, L 1.39, H 2.51, D 2.4, N 2.24, K 2.21, R 2.19, Y 2.64, M 2.08, I 2.28, Q 2.58, E 2.47, T 2.39, V 2.42, G 2.8, F 2.11, W 1.66, A 2.31
R12: M 2.16, T 2.09, K 2.5, G 2.42, Y 2.84, W 2.24, C 1.69, V 2.29, D 3, I 2.03, L 2.04, F 1.71, P 2.77, Q 2.3, E 2.95, S 2.79, A 2.65, H 2.63, N 2.55
E5: Q 2, L 2.33, H 2.09, W 2.27, A 1.92, S 2.3, I 2.16, R 2.02, V 2.48, M 1.47, F 1.88, Y 2.01, D 2.08, K 1.45, C 2.32, G 2.2, N 2.29, P 1.82, T 1.67
